As usually defined, the Kd is the free concentration of one partner at which half of the binding sites on the other are occupied at equilibrium, for simple one-to-one binding. Usually koff stands for the first-order rate constant of dissociation. Lower therefore signals slow dissociation. Broadly, the kon is the rate constant with which the complex forms. A higher kon goes with fast association. Broadly, the IC50 is the concentration that inhibits the measured activity by half. A high value points to a need for much substance.

Read-outs that look alike come from different tables or passages of the source.

Assay [1] addresses T1, PACAP38 (Pituitary Adenylate Cyclase-Activating Polypeptide, 38 amino acids) (human, not fully specified; the C-terminal lysine is amidated).
T1 peptide: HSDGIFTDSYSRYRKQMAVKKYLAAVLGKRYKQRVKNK
Put plainly: cell-based or functional assay.

In assay [2] the target is T2, PACAP27 (Pituitary Adenylate Cyclase-Activating Polypeptide, 27 amino acids) (human, the C-terminal leucine is amidated).
T2 peptide: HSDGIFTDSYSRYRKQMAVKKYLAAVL
Put plainly: cell-based or functional assay.

Assay [3] concerns the target T1, PACAP38 (Pituitary Adenylate …). Kind of assay: cell-based or functional assay.
Assay [4] shares this target. Put plainly: cell-based or functional assay.
For assay [5], the target named is T3, VIP (Vasoactive Intestinal Peptide) (human).
T3 construct: also called human VIP
T3 peptide: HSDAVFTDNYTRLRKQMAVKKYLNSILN
Kind of assay: SPR (ProteOn XPR36), antibody amine-coupled, peptide analyte, 1:1 Langmuir fit.

Assay [6] concerns the target T1, PACAP38 (Pituitary Adenylate …). The description is as above. The procedure:
(§1) Binding affinities of monoclonal antibodies for human PACAP were estimated using SPR on the PROTEON™ XPR36 (Bio-Rad, Hercules, CA). Antibody was immobilized to the surface of general amine coupling (“GLC” or “GLM”) Chips (Bio-Rad, Hercules, CA). […] Antigen (ranging from 1.23 nM to 100 nM) was typically run sequentially with association times of 2-4 minutes and dissociation times of 3-120 minutes grouped with the PROTEON™ Manager Software (v3.1.0.6 (Bio-Rad, Hercules, CA)) and fitted using a 1:1 Langmuir binding model. Surfaces were regenerated between analyte queries using 0.85% Phosphoric Acid.

For assay [7], the target named is T2, PACAP27 (Pituitary Adenylate …). Described as above. The procedure:
as §1

For assay [8] the target is unchanged. Kind of assay: inhibition of 0.1 nM 125I-PACAP27 binding to membranes with human PAC1-R long isoform, filter binding. The procedure: To identify antibodies that block PACAP27 binding to PAC1-R, antibodies at an initial concentration of 30 nM were diluted in incubation buffer (50 mM Hepes pH 7.4, 1 mM CaCl₂, 5 mM MgCl₂, 0.2% BSA) and serial 1:3 dilutions were performed. Antibody dilutions (30 nM, 10 nM, 3 nM, 1 nM, 0.3 nM, 0.1 nM, 0.03 nM, 0.01 nM, 0.003 nM and 0.001 nM) were then mixed and pre-incubated at 25° C. for 30 minutes with 0.1 nM of ¹²⁵I-labelled PACAP27 in incubation buffer. The antibody: ¹²⁵I-labelled PACAP27 mixture was then added to 0.5 μg aliquots of cell membranes derived from Chem-1 cells expressing human recombinant PAC1-R long isoform in incubation buffer. The mixture was then incubated for 1 hour at 25° C. Following incubation, the samples were filtered and washed. Afterward, the filters were counted to quantitate ¹²⁵I-labelled PACAP27. As an experimental control, non-specific binding to the cell membranes was estimated using 0.1 μM of […] PACAP27.

Assay [9] has as its target T4, PAC1-R on PAC1-R-expressing PC-12 cells (UniProt P32215 20-523).
T4 construct: whole, on cells; also called PAC1 receptor
T4 sequence (looked up): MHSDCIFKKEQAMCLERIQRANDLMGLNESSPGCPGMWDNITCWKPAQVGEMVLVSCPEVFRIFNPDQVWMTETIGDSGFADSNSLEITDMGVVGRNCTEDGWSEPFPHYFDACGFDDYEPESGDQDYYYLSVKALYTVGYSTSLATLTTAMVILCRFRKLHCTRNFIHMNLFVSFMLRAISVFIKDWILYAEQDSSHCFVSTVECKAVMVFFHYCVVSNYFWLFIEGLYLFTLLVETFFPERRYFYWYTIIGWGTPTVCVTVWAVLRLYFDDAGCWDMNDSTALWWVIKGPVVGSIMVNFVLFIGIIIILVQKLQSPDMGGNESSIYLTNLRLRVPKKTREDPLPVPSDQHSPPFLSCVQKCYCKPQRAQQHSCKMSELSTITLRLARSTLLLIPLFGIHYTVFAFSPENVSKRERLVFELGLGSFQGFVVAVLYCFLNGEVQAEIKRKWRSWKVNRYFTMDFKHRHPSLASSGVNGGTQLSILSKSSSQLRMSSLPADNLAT
Kind of assay: cell surface binding assay (DELFIA TRF): antibody pre-incubated with PACAP38, added to PAC1-R-expressing PC-12 cells, detected with Eu anti-human IgG. The procedure:
Cells were initially seeded at 1×10⁵ cells/well in a solution of complete RPMI (“cRPMI”: RPMI medium supplemented with 10% sterile heat-inactivated FBS and 1% sterile antibiotic/antimycotic)+10% FBS, and the plates were allowed to incubate overnight at 37° C. On the day of the binding assay, antibodies at an initial concentration of 15 μg/ml were diluted at a 1:3 ratio in DELFIA® binding buffer (50 mM Tris, 150 mM NaCl, 0.1% azide, 2% horse serum) (Perkin-Elmer, Waltham, MA) to a total volume of 60 μL in a separate 96 well round bottom plate. PACAP38 was prepared for the binding assay by diluting it in DELFIA® binding buffer to a concentration of 200 nM, and then 60 μl of the diluted PACAP38 was added to each of the antibody-containing wells to form antibody: antigen complexes. Following addition of PACAP38, the antibody: antigen complexes were incubated at room temperature on a shaker for 1 hour. Separately, the PC-12 cells were prepared for addition of antibody: antigen complexes by washing the cells two times with DELFIA® wash buffer (50 mM Tris, 150 mM NaCl, 0.1% Azide) (Perkin-Elmer, Waltham, MA). After washing the cells two times and following the 1 hour room temperature incubation of the antibody: antigen complexes, 50 μl of the antibody: antigen complex was added to each well containing cells. The mixtures of cells and antibody: antigen complexes were then incubated for 30 minutes at room temperature. Following this 30 minute incubation, each mixture was washed two times with DELFIA® wash buffer (Perkin-Elmer, Waltham, MA).
DELFIA® Europium labeled anti-human IgG detection reagent (Cat #1244-330, Perkin-Elmer, Waltham, MA) was diluted to a concentration of 300 ng/ml in DELFIA® Binding Buffer. Following dilution, 50 μl of the anti-human IgG detection reagent was added to each well containing cells, and a 30 minute incubation at room temperature followed this addition of IgG detection reagent. After completion of the 30 minute room temperature incubation, the cells were then washed two times with DELFIA® wash buffer. Next, 50 μl of DELFIA® Enhancement Solution (Cat #1244-105, Perkin-Elmer, Waltham, MA) was added to each well containing cells for a final 15 minute room temperature incubation with shaking. The plates were then read (TRF, excitation 330 nm, emission 620 nm) on a SPECTRAMAX® (Molecular Devices, Sunnyvale, CA) plate reader.

Assay [10] addresses T1, PACAP38 (Pituitary Adenylate …). Put plainly: cell-based or functional assay.
Assay [11] addresses T2, PACAP27 (Pituitary Adenylate …). Put plainly: cell-based or functional assay.
Assay [12] has as its target T1, PACAP38 (Pituitary Adenylate …). Kind of assay: inhibition of 30 nM biotinylated PACAP38 binding to PAC1-R-expressing PC-12 cells, Eu-streptavidin TRF. The procedure: To identify antibodies that block PACAP38 binding to PAC1-R-expressing cells, adherent PC-12 cells (ATCC, Manassas, VA) expressing PAC1-R were used in a Europium-based PAC1-R-expressing cells binding assay. Antibody solutions were incubated with N-terminal biotinylated PACAP38 at 10× the final concentration (100 nM or 30 nM) for 1 hr, then added to PC-12 cells that were plated 24 hrs prior in black clear bottom 96 well plates (COSTAR™, Corning Incorporated, Corning, NY) and further incubated for 1 hr at room temperature. After three washes, the cells were incubated with 20 μl Europium-labeled streptavidin (PerkinElmer, Waltham, MA) for 1 hr at room temperature. Cells were washed three times, then 20 μl DELFIA® Enhancement solution (PerkinElmer, Waltham, MA) was added to each well and incubated for 15 minutes with gentle shaking. Plates were read (Time Resolved Fluorescence (“TRF”)) on SPECTRAMAX® (Molecular Devices, Sunnyvale, CA) plate reader.
FIGS. 14A-14H are representative of the inhibition curves obtained by this method (results are shown for Ab10, Ab20, Ab21, Ab1.H, Ab10.H, Ab21.H, Ab22, and Ab23, respectively) wherein the PAC1-R expressing cells were PC-12 cells.

B1: Ab10.H3 (antibody, human IgG1, kappa, N297A)
heavy: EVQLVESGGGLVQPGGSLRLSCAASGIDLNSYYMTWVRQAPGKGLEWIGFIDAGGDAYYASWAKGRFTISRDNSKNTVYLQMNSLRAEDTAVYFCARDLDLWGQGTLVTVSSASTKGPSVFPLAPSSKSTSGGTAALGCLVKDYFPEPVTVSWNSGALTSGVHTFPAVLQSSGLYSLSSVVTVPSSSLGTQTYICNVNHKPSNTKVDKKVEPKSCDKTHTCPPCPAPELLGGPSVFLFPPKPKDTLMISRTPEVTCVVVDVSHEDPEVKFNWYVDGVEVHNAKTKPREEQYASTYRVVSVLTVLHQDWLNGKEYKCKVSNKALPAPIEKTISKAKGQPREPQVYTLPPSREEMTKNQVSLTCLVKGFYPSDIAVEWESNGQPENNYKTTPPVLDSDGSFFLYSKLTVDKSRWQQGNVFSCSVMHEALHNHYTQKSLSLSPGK
light: DIQLTQSPSTLSASVGDRVTITCQSSESVYGNYLAWFQQKPGKAPKFLIYEASKLESGVPSRFSGSGSGTEFTLTISSLQPDDFATYYCAGGDISEGVAFGGGTKVEIKRTVAAPSVFIFPPSDEQLKSGTASVVCLLNNFYPREAKVQWKVDNALQSGNSQESVTEQDSKDSTYSLSSTLTLSKADYEKHKVYACEVTHQGLSSPVTKSFNRGEC
notes: Full-length humanized variant of Ab10
Take B1: the “Inhibition of 0.1 nM PACAP38-induced PAC1-R mediated cAMP increase IC50 (pM)” value in assay [1] was 30.7 pM. Moreover, in assay [2], the “Inhibition of 1 nM PACAP27-induced PAC1-R mediated cAMP increase IC50 (pM)” value is 321 pM. In assay [3], the “Inhibition of 5 nM PACAP38-induced human VPAC1-R mediated cAMP increase IC50 (pM)” value amounted to 1520 pM. For the same molecule, in [4], the “Inhibition of 1 nM PACAP38-induced human VPAC2-R mediated cAMP increase IC50 (pM)” value came to 301 pM. Moreover, the Kd was 91 nM in [5], at most 0.022 nM in [6] and at most 0.059 nM in assay [7]. Further, the koff is 0.013 s⁻¹ in assay [5], at most 1e-05 s⁻¹ in assay [6] and at most 1e-05 s⁻¹ in assay [7]. In addition, the kon is 140000 M⁻¹ s⁻¹ in assay [5], 450000 M⁻¹ s⁻¹ in [6] and 170000 M⁻¹ s⁻¹ in assay [7]. In addition, the IC50 in assay [8] worked out at 0.21 nM. Besides, in assay [9], the binding result was “no binding (tested: about 70 nM)”.

B2: Ab21.H (antibody, human IgG1, kappa, N297A)
heavy: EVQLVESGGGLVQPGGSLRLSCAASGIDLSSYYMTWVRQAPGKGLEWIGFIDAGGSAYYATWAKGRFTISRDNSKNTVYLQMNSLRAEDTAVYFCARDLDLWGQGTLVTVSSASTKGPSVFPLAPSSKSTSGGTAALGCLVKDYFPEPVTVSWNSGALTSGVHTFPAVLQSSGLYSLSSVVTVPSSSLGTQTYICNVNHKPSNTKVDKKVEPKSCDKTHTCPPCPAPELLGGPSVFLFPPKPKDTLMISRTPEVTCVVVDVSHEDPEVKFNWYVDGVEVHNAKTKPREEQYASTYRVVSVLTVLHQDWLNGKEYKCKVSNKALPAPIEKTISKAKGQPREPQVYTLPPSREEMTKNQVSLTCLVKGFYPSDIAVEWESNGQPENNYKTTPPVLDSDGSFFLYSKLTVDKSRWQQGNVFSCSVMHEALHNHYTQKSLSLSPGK
light: DAQLTQSPSTLSASVGDRVTITCKSSESVYGDYLAWFQQKPGKAPKQLIYDASTLASGVPSRFSGSGSGTEFTLTISSLQPDDFATYYCAGGYVSAGVAFGGGTKVEIKRTVAAPSVFIFPPSDEQLKSGTASVVCLLNNFYPREAKVQWKVDNALQSGNSQESVTEQDSKDSTYSLSSTLTLSKADYEKHKVYACEVTHQGLSSPVTKSFNRGEC
notes: Full-length humanized variant of Ab21
For B2, the “Inhibition of 0.1 nM PACAP38-induced PAC1-R mediated cAMP increase IC50 (pM)” value in assay [10] amounted to 246 pM. For the same molecule, in assay [11], the “Inhibition of 0.1 nM PACAP27-induced PAC1-R mediated cAMP increase IC50 (pM)” value stood at 204 pM. Besides, in [3], the “Inhibition of 5 nM PACAP38-induced human VPAC1-R mediated cAMP increase IC50 (pM)” value worked out at 2100 pM. Also, the “Inhibition of 1 nM PACAP38-induced human VPAC2-R mediated cAMP increase IC50 (pM)” value in assay [4] came to 1510 pM. Besides, the Kd in [5] is 440 nM; in [6] it was at most 0.021 nM; in [7], at most 0.016 nM. The koff in assay [5] is 0.059 s⁻¹; in [6] it was at most 1e-05 s⁻¹; in assay [7], at most 1e-05 s⁻¹. The results for the kon in assay [5], in [6] and in assay [7] were 140000 M⁻¹ s⁻¹, 480000 M⁻¹ s⁻¹ and 630000 M⁻¹ s⁻¹, respectively. For the same molecule, the figures for the IC50 in [8] and in [12] were 0.39 nM and 12.7 nM, respectively.
